Numbering of substitutions follows the chain as printed.
Tests used:
Assay in all cases: MST
[1] = molecular target: T1, AtGRP7YtoE Y103E;Y111E;Y118E;Y131E;Y138E;Y148E;Y159E;Y167E (Arabidopsis thaliana) (UniProt Q03250); details: 25 mM Tris-HCl pH 8.0, 150 mM NaCl (150 mM LiCl for Sc1 LiCl), 1 mM DTT, 0.1 mg/ml BSA; 20 nM Cy5-RNA; about 2 min incubation; temperature not stated; low values mean tight binding
T1 sequence: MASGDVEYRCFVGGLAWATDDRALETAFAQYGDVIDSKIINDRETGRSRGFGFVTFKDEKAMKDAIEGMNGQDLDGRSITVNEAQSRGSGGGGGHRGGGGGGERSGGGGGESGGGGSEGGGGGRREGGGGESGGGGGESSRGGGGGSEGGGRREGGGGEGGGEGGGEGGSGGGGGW

[2] = molecular target: T2, AtBnGRP7 (Arabidopsis thaliana / Brassica napus chimera) (UniProt Q03250); details: 25 mM Tris-HCl pH 8.0, 150 mM NaCl (150 mM LiCl for Sc1 LiCl), 1 mM DTT, 0.1 mg/ml BSA; 20 nM Cy5-RNA; about 2 min incubation; temperature not stated; low values mean tight binding
T2 sequence: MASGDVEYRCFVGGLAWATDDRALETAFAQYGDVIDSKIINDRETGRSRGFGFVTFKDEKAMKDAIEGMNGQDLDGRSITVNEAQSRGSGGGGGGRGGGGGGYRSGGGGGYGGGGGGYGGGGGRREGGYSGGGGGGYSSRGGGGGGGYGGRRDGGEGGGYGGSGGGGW

BnGRP7 (Brassica napus) [3] = molecular target: T3, BnGRP7 (Brassica napus) (UniProt A0A078J5Z4); details: 25 mM Tris-HCl pH 8.0, 150 mM NaCl (150 mM LiCl for Sc1 LiCl), 1 mM DTT, 0.1 mg/ml BSA; 20 nM Cy5-RNA; about 2 min incubation; temperature not stated; low values mean tight binding
T3 sequence: T2 sequence with G4P, A29S, Y31F, I35L, A61S

[4] = molecular target: T4, eYFP-AtGRP7RGG (Arabidopsis thaliana) (UniProt Q03250); details: 25 mM Tris-HCl pH 8.0, 150 mM NaCl (150 mM LiCl for Sc1 LiCl), 1 mM DTT, 0.1 mg/ml BSA; 20 nM Cy5-RNA; about 2 min incubation; temperature not stated; low values mean tight binding
T4 sequence: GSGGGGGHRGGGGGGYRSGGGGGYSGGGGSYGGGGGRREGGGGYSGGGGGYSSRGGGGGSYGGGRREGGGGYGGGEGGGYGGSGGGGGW

[5] = molecular target: T5, AtGRP7YtoG Y103G;Y111G;Y118G;Y131G;Y138G;Y148G;Y159G;Y167G (Arabidopsis thaliana) (UniProt Q03250); details: 25 mM Tris-HCl pH 8.0, 150 mM NaCl (150 mM LiCl for Sc1 LiCl), 1 mM DTT, 0.1 mg/ml BSA; 20 nM Cy5-RNA; about 2 min incubation; temperature not stated; low values mean tight binding
T5 sequence: T1 sequence with E103G, E111G, E118G, E131G, E138G, E148G, E159G, E167G

[6] = molecular target: T6, AtGRP7StoE S132E;S139E (Arabidopsis thaliana) (UniProt Q03250); details: 25 mM Tris-HCl pH 8.0, 150 mM NaCl (150 mM LiCl for Sc1 LiCl), 1 mM DTT, 0.1 mg/ml BSA; 20 nM Cy5-RNA; about 2 min incubation; temperature not stated; low values mean tight binding
T6 sequence: T1 sequence with E103Y, E111Y, E118Y, E131Y, S132E, E138Y, S139E, E148Y, E159Y, E167Y

[7] = molecular target: T7, AtGRP7short (Arabidopsis thaliana) (UniProt Q03250); details: 25 mM Tris-HCl pH 8.0, 150 mM NaCl (150 mM LiCl for Sc1 LiCl), 1 mM DTT, 0.1 mg/ml BSA; 20 nM Cy5-RNA; about 2 min incubation; temperature not stated; low values mean tight binding
T7 sequence: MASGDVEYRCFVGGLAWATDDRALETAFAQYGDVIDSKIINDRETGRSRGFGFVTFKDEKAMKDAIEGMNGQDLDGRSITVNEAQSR

[8] = molecular target: T8, AtGRP7 (Arabidopsis thaliana) (UniProt Q03250); details: 25 mM Tris-HCl pH 8.0, 150 mM NaCl (150 mM LiCl for Sc1 LiCl), 1 mM DTT, 0.1 mg/ml BSA; 20 nM Cy5-RNA; about 2 min incubation; temperature not stated; low values mean tight binding
T8 sequence: T1 sequence with E103Y, E111Y, E118Y, E131Y, E138Y, E148Y, E159Y, E167Y

[9] = molecular target: T9, AtGRP7StoG S132G;S139G (Arabidopsis thaliana) (UniProt Q03250); details: 25 mM Tris-HCl pH 8.0, 150 mM NaCl (150 mM LiCl for Sc1 LiCl), 1 mM DTT, 0.1 mg/ml BSA; 20 nM Cy5-RNA; about 2 min incubation; temperature not stated; low values mean tight binding
T9 sequence: T1 sequence with E103Y, E111Y, E118Y, E131Y, S132G, E138Y, S139G, E148Y, E159Y, E167Y

[10] = tested on: AtGRP7 (Arabidopsis thaliana); details: MST: 25 mM Tris-HCl pH 8.0, 150 mM NaCl, 1 mM DTT, 0.1 mg/ml BSA; 20 nM Cy5-RNA; protein titrated from 50-75 uM; about 2 min incubation; temperature not stated
BnGRP7 (Brassica napus) [11] = details: MST: 25 mM Tris-HCl pH 8.0, 150 mM NaCl, 1 mM DTT, 0.1 mg/ml BSA; 20 nM Cy5-RNA; protein titrated from 50-75 uM; about 2 min incubation; temperature not stated
[12] = tested on: AtGRP7StoG (Arabidopsis thaliana); details: MST: 25 mM Tris-HCl pH 8.0, 150 mM NaCl, 1 mM DTT, 0.1 mg/ml BSA; 20 nM Cy5-RNA; protein titrated from 50-75 uM; about 2 min incubation; temperature not stated
[13] = tested on: AtBnGRP7 (Arabidopsis thaliana / Brassica napus chimera); details: MST: 25 mM Tris-HCl pH 8.0, 150 mM NaCl, 1 mM DTT, 0.1 mg/ml BSA; 20 nM Cy5-RNA; protein titrated from 50-75 uM; about 2 min incubation; temperature not stated
[14] = tested on: AtGRP7StoE (Arabidopsis thaliana); details: MST: 25 mM Tris-HCl pH 8.0, 150 mM NaCl, 1 mM DTT, 0.1 mg/ml BSA; 20 nM Cy5-RNA; protein titrated from 50-75 uM; about 2 min incubation; temperature not stated
[15] = tested on: AtGRP7YtoG (Arabidopsis thaliana); details: MST: 25 mM Tris-HCl pH 8.0, 150 mM NaCl, 1 mM DTT, 0.1 mg/ml BSA; 20 nM Cy5-RNA; protein titrated from 50-75 uM; about 2 min incubation; temperature not stated
[16] = tested on: eYFP-AtGRP7RGG (Arabidopsis thaliana); details: MST: 25 mM Tris-HCl pH 8.0, 150 mM NaCl, 1 mM DTT, 0.1 mg/ml BSA; 20 nM Cy5-RNA; protein titrated from 50-75 uM; about 2 min incubation; temperature not stated
[17] = tested on: AtGRP7short (Arabidopsis thaliana); details: MST: 25 mM Tris-HCl pH 8.0, 150 mM NaCl, 1 mM DTT, 0.1 mg/ml BSA; 20 nM Cy5-RNA; protein titrated from 50-75 uM; about 2 min incubation; temperature not stated
[18] = molecular target: T8, AtGRP7 (Arabidopsis thaliana); details: 25 mM Tris-HCl pH 8.0, 150 mM NaCl (150 mM LiCl for Sc1 LiCl), 1 mM DTT, 0.1 mg/ml BSA; 20 nM Cy5-RNA; about 2 min incubation; temperature not stated; low values mean tight binding; remark: listed apart in the source

## AUUUUGUUCUGGUUCUGCUUUAGAUUUGAUGU [AtGRP7 3'UTR fragment (7-UTR-WT, 32 nt)]
[1]
  Kd: 0.701 µM
[2]
  Kd: 0.018 µM
BnGRP7 (Brassica napus) [3]
  Kd: 0.017 µM
[4]
  Kd: 0.031 µM
[5]
  Kd: 0.356 µM
[6]
  Kd: 0.072 µM
[7]
  Kd: 12.2 µM
[8]
  Kd: 0.158 µM
[9]
  Kd: 0.052 µM

## AtCOR15A pre-mRNA
[10]
  Kd: 0.15 µM
BnGRP7 (Brassica napus) [11]
  Kd: 0.323 µM
[12]
  Kd: 2.23 µM
[13]
  Kd: 0.741 µM
[14]
  Kd: 0.738 µM
[15]
  Kd: 3.75 µM

## AtGRP7 3'UTR fragment (7-UTR-WT)
[10]
  Kd: 0.16 µM
[16]
  Kd: 0.031 µM

## AtGRP7 CDS RNA
[10]
  Kd: 0.182 µM
[16]
  Kd: 2.1 µM

## BnPARCL CDS RNA
[10]
  Kd: 0.0997 µM
[17]
  Kd: 4.07 µM

## GCUGCGGUGUGGAAGGAGUGGUCGGGUUGCGCAGCG [Sc1 G-quadruplex RNA]
[8]
  Kd: 6.9 µM
[18]
  Kd: 0.463 µM

## GGAUGGCGUCCGGUGAUGUUGAGUAUCGGUGCUUCGUUGGAGGUCUAGCAUGGGCCACUGAUGACAGAGCUCUUGAGACUGCCUUCGCUCAAUACGGCGACGUUAUUGAUUCCAAGAUCAUUAACGAUCGUGAGACUGGAAGAUCAAGGGGAUUCGGAUUCGUCACCUUCAAGGAUGAGAAAGCCAUGAAGGAUGCGAUUGAGGGAAUGAACGGACAAGAUCUCGAUGGCCGUAGCAUCACUGUUAACGAGGCUCAGUCACGAGGAAGCGGUGGCGGCGGAGGCCACCGUGGAGGUGGUGGCGGUGGAUACCGCAGCGGCGGUGGUGGAGGUUACUCCGGUGGAGGUGGUAGCUACGGAGGUGGCGGCGGUAGACGCGAGGGUGGAGGAGGAUACAGCGGCGGCGGCGGCGGUUACUCCUCAAGAGGUGGUGGUGGCGGAAGCUACGGUGGUGGAAGACGUGAGGGAGGAGGAGGAUACGGUGGUGGUGAAGGAGGAGGUUACGGAGGAAGCGGUGGUGGUGGAGGAUGGUAA [AtGRP7]
[1]
  Kd: 5.4 µM
[2]
  Kd: 0.107 µM
BnGRP7 (Brassica napus) [3]
  Kd: 3.72 µM
[4]
  Kd: 1.52 µM
[5]
  Kd: 7.39 µM
[6]
  Kd: 0.536 µM
[8]
  Kd: 0.182 µM
[9]
  Kd: 1.17 µM

## miR164
[10]
  Kd: 0.042 µM
BnGRP7 (Brassica napus) [11]
  Kd: 0.021 µM
[17]
  Kd: 5.93 µM

— paper PMC11239674
